Measured values as given in patent publication US20040265880A1, “Genomic and proteomic approaches for the development of cell culture medium” (Sigma-Aldrich Co., priority 2003, published 2004).

Tested on: HEK-293 cells
Assay: Resazurin high throughput proliferation assay, HEK-293
Type: cell-based, human
Conditions: versus base medium with 1% FBS; each ligand at three concentrations
Method: Resazurin is a metabolic dye which is converted to a fluorescent product. The greater the amount of the fluorescent product that is generated, the more metabolism, which directly correlates with cell number.
In this assay, resazurin was added to HEK-293 cells plated in each well of a 24-well assay plate containing a test medium containing one of the 16 ligands corresponding to the positive growth factors/cytokines and incubated at 37° C. After a 30 minute incubation, the plate was analyzed on a standard fluorescence plate reader. A higher RFU value from the plate reader translates to a higher cell density in the wells.
Briefly, the 16 ligands corresponding to positive growth factor/cytokine receptors were tested in the resazurin assay, each ligand at three different concentrations. […]
Cells were plated in each well of a 24-well tissue culture treated plate containing 1 ml of a base medium. […] After sufficient incubation time to convert some of the resazurin, the fluorescence was measured on a HTS 7000 Plus BioAssay Reader (Perkin-Elmer, Boston, Mass.). Readings were taken once a day until the culture was confluent (typically about 4 days). A plate with base medium only (no cells) was used as a blank and subtracted from the RFU reading to establish the final RFU values.

B1: oncostatin M (protein, UniProt P13725 26-221, looked up)
Oncostatin-M: AAIGSCSKEYRVLLGQLQKQTDLMQDTSRLLDPYIRIQGLDVPKLREHCRERPGAFPSEETLRGLGRRGFLQTLNATLGCVLHRLADLEQRLPKAQDLERSGLNIEDLEKLQMARPNILGLRNNIYCMAQLLDNSDTAEPTKAGRGASQPPTPTPASDAFQRKLEGCRFLHGYHRFMHSVGRVFSKWGESPNRSRR
notes: ligand of oncostatin M receptor
effect on HEK-293 proliferation (RFU, resazurin): significant effect
